Data from paper PMC9604149, “Evolution of the vls Antigenic Variability Locus of the Lyme Disease Pathogen and Development of Recombinant Monoclonal Antibodies Targeting Conserved VlsE Epitopes” (Microbiology Spectrum, 2022).
Substitutions are numbered along the chain they refer to.

B1: recombinant monoclonal antibody 1D11-4 (antibody, V domains shown)
VH: QSLVESGGGLVQPEGSLTLTCKASGFSFSSGYDMCWVRQAPGKGLEYIACIDAGDDITHYASWVKGRFTVSKTSSTTVTLQLNSLTVADTATYFCGRFWDLWGPGTLVTVSS
VL: SSVLTQTPSPVSAAVGGTVTINCQSSQSVYDSTWLGWYQQKPGQPPKLLIYKASNLASGVPSRFKGSGSGTHFTLTISDLECDDAATYYCVGGYSGSVDNWAFGGGTEVVVK
notes: the antibody was detected with an anti-rabbit IgG secondary antibody; Only the variable regions are printed; also called anti-IR6 rMAb; source: made by GenScript
B2: antibody in the supernatant of rabbit B cell line 1D11 (antibody, V domains shown)
VH: B1 VH
VL: B1 VL
notes: Unpurified antibody of the cell line; also called anti-IR6 1D11 cell line
B3: recombinant monoclonal antibody 15E2-1 (antibody, V domains shown)
VH: QSLEESGGGLFKPTDTLTLTCTVSGIDLSSYAMIWVRQAPGKGLEWIGYIWSSGRIWYASWAKGRFTISRTSTTVDLKLASPTTEDTATYFCARLWDIWGPGTLVTVSS
VL: AQVLTQTPSSVSAAVGGTVTISCQASQSLYNGVNLAWYQQKPGQPPKLLIFGASNLESGVSSRFRGSGSGTQFTLTISGVQCDDAATYYCLGEFSCSSADCLAFGGGTEVVVK
notes: the antibody was detected with an anti-rabbit IgG secondary antibody; Only the variable regions are printed; also called anti-IR4 rMAb; source: made by GenScript
B4: antibody in the supernatant of rabbit B cell line 15E2 (antibody, V domains shown)
VH: B3 VH
VL: B3 VL
notes: Unpurified antibody of the cell line
B5: recombinant monoclonal antibody 17A8-1 (antibody, V domains shown)
VH: QSVEESGGRLVTPGTPLTLTCTVSGFPLSSYSMAWVRQAPGKGLEYIGFINTDGSAYYASWAKGRITISKTSTTVELKITSPTTEDTATYFCGTGNIWGPGTLVTVSS
VL: AQVLTQTPSSVSAAVGGTVTINCQASQSVSNNNVLAWFQQKPGQPPKRLIYSALTLDSGVPSRFKGSGSGTHFTLTISGVQCDDAATYYCAGGYDCSSNDCIAFGGGTEVVVK
notes: as for B3
B6: antibody in the supernatant of rabbit B cell line 28D3 (antibody, V domains shown)
VH: B5 VH with P27S, A34G, F49M, N51I, T52S, D53N, G54N, A56T
VL: B5 VL with S9A, V29T, V34A, A103T
notes: as for B4
B7: recombinant monoclonal antibody 28D3-1 (antibody, V domains shown)
VH: B5 VH with P27S, A34G, F49M, N51I, T52S, D53N, G54N, A56T
VL: B5 VL with S9A, V29T, V34A, A103T
notes: as for B3
B8: antibody in the supernatant of rabbit B cell line 17A8 (antibody, V domains shown)
VH: B5 VH
VL: B5 VL
notes: as for B4

Key:
[1] = target: T1, recombinant VlsE protein (of strain B31) (Borreliella burgdorferi B31 (clone …, UniProt O06878)); experiment: ELISA; validation of the specificity of the purified rMAbs: antigen (IR peptide or VlsE) fixed on the plate; dilution not told; conditions: both partners purified
T1 construct: VlsE of B. burgdorferi B31, clone B31-5A3: the 585-bp vlsE cassette region (including the IR1 through VR6 regions), codon-optimized; 585 bp would encode about 195 residues; also called recombinant B31 VlsE; vlsE cassette; source: E. coli BL21 (pET24), purified (Ni-NTA); estimated purity ~65%

[2] = target: T1, recombinant VlsE protein (of strain B31); experiment: ELISA; antigen (IR peptide or recombinant VlsE) coated on a 96-well plate at 10 ug/mL overnight at 4 C, blocked with 5% milk; supernatants of rabbit B cell lines applied; HRP anti-rabbit IgG secondary 1:30,000; OD450; reactive if more than 3 SD above the mean BSA reactivity; conditions: one partner purified

Binder | binding result [1] | binding result [2]
B1 | binds | 
B2 |  | binds
B3 | binds | 
B4 |  | binds
B5 | binds | 
B6 |  | binds
B7 | binds | 
B8 |  | binds
